Test results: PMC2172186 (The Journal of Cell Biology, 2004)

B1: TgGAP45 (Toxoplasma gondii gliding-associated protein 45) (natural protein, UniProt Q7Z289 1-245, looked up)
chain: MGNACKKNTAKTPTRKEAEDLAEKERQEREAKEKAEAEEKARAEAEKNAADKAEAERRAAEAREREESARKEAEAEAARKAEAEAAEAERLRKEAEKKKAEEAKRKAEEEQRAAAEEAEQRAREEAERRKAEAAAAAERERQMQEALKQEEMSPREKYDKLASPEDSASETTMATQPQKVAEHSSAAVTDRSVVGYTVTPCDMAAIDETAKYLSKRCGCDLGDQHDENECPICRHIDLSDAPLLN

Legend:
[1] = biological target: TgMyoA (Toxoplasma gondii myosin-A, class XIV myosin) (Toxoplasma gondii (endogenous in RH strain parasites)) (UniProt O00934); test: co-IP
[2] = biological target: TgMyoA (Toxoplasma gondii myosin-A, class XIV myosin) (Toxoplasma gondii (endogenous in RH …, UniProt O00934 1-831)); test: co-IP

| Molecule | molar ratio to TgMyoA in the complex [1] | molar ratio to TgMyoA in the complex [2] |
| --- | --- | --- |
| TgMLC1 (Toxoplasma gondii myosin light chain-1) (natural protein) | 1.38 |  |
| B1 |  | 1.31 |
